Assay results as given in patent US12723078 (University of Texas, dated 2026).
Changes are numbered by the printed parent chain.

B1: B1-#202-2 (antibody, V domains shown)
VH: SQSLEESGGGLVKPGASLTLTCKGSGFSFNGDYYMCWVRQTPGKGLEWIGCIYAAGDDTYYATWAKGRFTISKTSSTTVTLQMTSLTAADTATYFCARDQADSYAFGLWGPGTLVTISS
VL: ELVLTQTASPVSGAVGGTVTIKCQASQNIYSNLAWYQQKPGQPPKLLIYSASKLASGVPSRFKGSGSGTEYTLTISGVQCEDAATYYCQSYYYTASADTTFGGGTEVEIK
notes: recombinant rabbit IgG
B2: B1-#79 (antibody, V domains shown)
VH: QSLEESGGGLVQPEGSLTLTCTVSGFSFSSSWYMCWVRQAPGKGLEWIACIYTLRSGAAHYANWAKGRFTISKASSTTVTLQMNSLTAADTATYFCARATYAYAGAGDLWGPGTLVTVSS
VL: ELVLTQTPSSVSAAVGGTVTINCQASEDIDRYLAWYQQKPGQRPKLLIVDASTLPSGVPSRFKGSGSGTEFTLTISDLECADGATYYCQSYDNSDNNGFGGGTEVVVK
notes: recombinant rabbit IgG
B3: B1-#15 (antibody, V domains shown)
VH: EQSVEESGGDLVKPGASLTLTCTASGFSSSSSAYMCWVRQAPGKGLEWIACIFIGSGSDSYYATWAKGRFTISKTSSTTVTLQMTSLTAADTATYFCARNTYDWNGYIYGPCYFGLWGPGTLVTISS
VL: ELDLTQTPSSVEAAVGGTVTIKCQASQSIYNYLAWYQQKPGHSPKLLIYDVSKLASGVSSRFKGSGSGTEFTLTISDLECADAATYYCQSYYGNTVSFTFGGGTEVEIK
notes: recombinant rabbit IgG
B4: B1-#56 (antibody, V domains shown)
VH: QSLEESGGDLVQPEGSLTLTCTASGFSFSINLYMCWVRQAPGKGLEWIACIYGNNNANTYYTTWAKGRFTISKTSPTTVTLQMTSLTGADTATYFCARDTAAYYAFSLWGPGTLVTISS
VL: ELVMTQTPSSSSAAVGGTVTIKCQASQSIGSRFAWYQQKPGQRPKLLIYEASKLPSGVPSRFKGSGSGTEFTLTISDLECADAAIYYCQCTYYESSSGGGFGGGTEVVVK
notes: recombinant rabbit IgG
B5: B1-#28 (antibody, V domains shown)
VH: EQSLEESGGGLVKPGASLTLTCKASGFSFSSDYDMCWVRQAPGKGLEWIGCIVTGFSGRIYYATWARGRFTFSRTSSTTLTLQMTSLTAADTATYFCARDSGNYNWDLWGPGTLVTISS
VL: ELDLTQTPTSVSAAVGGTVTIKCQASQSISDYLSWYQQKPGQPPKLLIYRASTLASGVPSRFKGSGSGTEFTLTISDLECADAATYYCQSNYYGSQGCTFGGGTEVEIK
notes: recombinant rabbit IgG
B6: B1-#220 (antibody, V domains shown)
VH: QSVEESGGGLVQPEGSLTLTCTASGFSFSGIVYMCWVRQAPGKGLEWIACAFVGSGGSTYYATWATGRFTISKTSSTTVTLQMTSLTAADTATYFCAKSYNYNGLGLWGPGTLVTVSS
VL: ELDMTQTPASVSAAVGGTVTIKCQASQSITNALAWYQQKPGQPPKLLIYRASTLASGVSSRFKGSGSGTEFTLTISDLECADAATYYCQCSYYGSTYFGSPFGGGTEVEIK
notes: recombinant rabbit IgG
B7: B1-#175 (antibody, V domains shown)
VH: ESEGGLVKPGGTLTLTCKVSGIDFNSYKYYYMCWVRQAPGKGLEWIGCMSTASRNIYYASWAKGRFTISETSSTSVTLQMTTLTAADTATYFCAKSHGGDGGYGVVLWGPGTLVTISS
VL: ELVMTQTPSSVSAAVGDTLTINCQASETISNRLAWYQQKPGQPPKLLIYSASTLESGVPSRFRGSGSGTQFTLTISDLECADAATYYCQSIRSSSGVVHPNTFGGGTEVEIK
notes: recombinant rabbit IgG
B8: B1-#58-1 (antibody, V domains shown)
VH: EQSLEESGGDLVKPGASLTLTCTASAFSFSSSSWICWVRQAPGKGLEWIACIYGGSVGTTYYASWAKGRFTISKPSSTTVTLQMTSLAAADTATYFCATNTDSSRSYYNLWGPGTLVTISS
VL: ELVLTQTPSSVEVAVGGAVTIKCQASHIITNYLAWYQQRPGQPPKLLIYDASKLASGVPSRFKGSGSGTEFTLTISDLECADAATYYCQNYLYFSSGDWNVFGGGTEVVVK
notes: recombinant rabbit IgG
B9: mAb of B cell clone 19 (supernatant) (antibody, V domains shown)
VH: EQSVEESGGGLVKPEGSLTLTCKASGLDFSSSYWSCWVRQTPGRGLEWIGCIDVGSSGGSYYASWARGRFTVSKGSSTTVTLQMTSLTAADTATYFCASTTTNVFGYDLWGPGTLVTVSS
VL: ELDLTQTPASVSEPVGGTVTIKCQASQNIYNNLAWYQQKPGQPPKLLIYYASTLASGVPPRFSGSGSGTEYTLTISDLECDDAATYYCQNNAGIYGGYGHGFGGGTEVVVK
notes: rabbit; also called B1-#19
B10: mAb of B cell clone 22 (supernatant) (antibody, V domains shown)
VH: EQSLEESGGGLVKPGASLTLTCKASGFDFSSNDYMCWVRQAPGKGLEWIGCIYGGDGHTYYATWAKGRFTISKASSTTVTLQMTSLTAADTASYFCARGYSYGDTGYADAILTLDLWGPGTLVTVSS
VL: ELDLTQTPASVEAAVGGTVTIKCQASQTIGSYLSWYQQKPGQRPKLLIYEASKLASGVPSWFKGSGSGTEFTLTISDLECADAATYYCQSNYYRAGGNYGGAFGGGTEVEIK
notes: rabbit; also called B1-#22
B11: mAb of B cell clone 25 (supernatant) (antibody, V domains shown)
VH: EQSVKESGGGLVQPEGSLTLTCKVSGIDFNYYNYYYMCWVRQAPGKGLEWIGCMSTASANIYLASWAKGRFTISEASSTTVTLQMTSLTAADTATYFCAKSHGGDGGYGVVLWGPGTLVTISS
VL: B7 VL with V3D, M4L, S9F, D17G, L19V, N22K, R63K, Q70E, V97I
notes: rabbit; also called B1-#25
B12: mAb of B cell clone 27 (supernatant) (antibody, V domains shown)
VH: EQSVKESGGGLVQPEGSLTLTCTVSGFSFSGSYWICWVRQAPGKGLEWIACIYGDSIATYYPNWAKGRFTISKTSSTTVTLQMASLTGADTATYFCARDRNGGSGAYGWDLWGPGTLVTISS
VL: ELDLTQTPASVSEPVGGTVTITCQASQSISSYLSWYQQTPGQPPKLLIYKASTLASGVPSRFKGSGSGTEFTLTISDLECADAATYYCQSYYYISATVDNTFGGGTEVEIK
notes: rabbit; also called B1-#27
B13: mAb of B cell clone 28 (supernatant) (antibody, V domains shown)
VH: B5 VH
VL: B5 VL
notes: rabbit; also called B1-#28
B14: mAb of B cell clone 38 (supernatant) (antibody, V domains shown)
VH: EQSVEESEGGLVQPEGSLTLTCTASGFSFSNDYWICWVRQAPGKGLEWIGCGHIGSFRTTYYASWAKGRFSISKTSSTTVTLQMTSLTGADTATYFCARSPYDDGYGGFTFNLWGPGTLVTISS
VL: ELDMTQTPSSVEAAVGGTVTVKCQVSQSIGNAIAWYQQKPGQPPKLLIYKASTLASGVPSRFKGSGSGTEFTLTISDLECADAATYYCQNYYYSNTNSFGGGTEVVVK
notes: rabbit; also called B1-#38
B15: mAb of B cell clone 41 (supernatant) (antibody, V domains shown)
VH: QSVKESGGDLVKPGASLTLTCTASGFSFSSSYWICWVRQAPGKGLEWIACIYAGSSGSTYYASWAKGRFTISKTSSTTVTLQMTSLTAADTATYFCARSTSGSYGAGLGLWGPGTLVTISS
VL: ELDMTQTASPVSGAVGGTVTIKCQASQNIYNNIGWYQQKPGQPPNLLIYGPSYLASGVPSRFKGSRSGTEYTLTISDLECADAATYYCQSDDWMSISPDIVFGGGTEVEIK
notes: rabbit; also called B1-#41-1
B16: mAb of B cell clone 56 (supernatant) (antibody, V domains shown)
VH: B4 VH
VL: B4 VL
notes: rabbit; also called B1-#56
B17: mAb of B cell clone 58 (supernatant) (antibody, V domains shown)
VH: B8 VH
VL: B8 VL
notes: rabbit; also called B1-#58-1
B18: mAb of B cell clone 83 (supernatant) (antibody, V domains shown)
VH: B8 VH with E5K, G58A, S64T, A88P, I119V
VL: B8 VL with V3D
notes: rabbit; also called B1-#83
B19: mAb of B cell clone 72 (supernatant) (antibody, V domains shown)
VH: QSVKESGGGLVQPEGSLALTCKASGIDLSNYWYMCWVRQAPGKGLEWIGCVATDSSRTHYATWAKGRFTVSKTSSTTVTLQMTSLTAADTATYFCARGSGASTNGVWWVMGDGMDLWGPGTLVTISS
VL: ELVMTQTPSSVSAAVGGTVTIKCQASPSISTYLSWYQQKPGQPPKRLINRASTLASGVPPRFKGSGAGTQFTLTISDLECADAATYYCQNNYHSGSSNGGGVAFGGGTEVEIK
notes: rabbit; also called B1-#72-1
B20: mAb of B cell clone 74 (supernatant) (antibody, V domains shown)
VH: QSLEESGGGLVKPGASLTLTCTASGFSLNRYYMCWVRQAPGKGLEWIGCIYSGSGSTYYASWAKGRFTISKTSSTTVTLQMTSLPAADTATYFCGRLDYRVIYAFNLWGPGTLVTISS
VL: ELVLTQTPASVSAAVGGTVTINCQASQSIGSGNLAWYQQKPGQPPKLLIYLASTLASGVPPRFKGSGSGTEFTLTISDLECDDAATYYCQYTYYGTTYDNAFGGGTELEIK
notes: rabbit; also called B1-#74
B21: mAb of B cell clone 76 (supernatant) (antibody, V domains shown)
VH: EQSVEESGGGLVQPEGSLTLTCTASGFSFSGSCDMSWVRQAPGKGLEWIACIVLSNGNTYYAGWAQGRFTISKISSTTVTLEMTSLTAADTATYFCARERYPGAFSSGLDLWGQGTLVTVSS
VL: ELDLTQTPSPVSAAVGGTVTINCQASQIVANGRLAWYQQKPGQPPKLLIYATSTLASGVPSRFKGSGSGTQFTLTINGVQCDDAATYYCQGAYSSGDVRTFGGGTEVVVK
notes: rabbit; also called B1-#76
B22: mAb of B cell clone 79 (supernatant) (antibody, V domains shown)
VH: B2 VH
VL: B2 VL
notes: rabbit; also called B1-#79

The binders below were run against T1, recombinant LILRB1 (human, UniProt Q8NHL6 24-461) (assay: ELISA, coated recombinant LILRB1, antibody titration;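 further: serially diluted anti-LILRB1 antibodies incubated 60 min at 37 °C on plates coated with 50 ng/well recombinant protein, TMB colorimetric development read as absorbance at 450 nm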).
T1 construct: LILRB1-Fc proteins were also made; also called LILRB1 recombinant proteins
T1 sequence (Q8NHL6 24-461 limits assumed): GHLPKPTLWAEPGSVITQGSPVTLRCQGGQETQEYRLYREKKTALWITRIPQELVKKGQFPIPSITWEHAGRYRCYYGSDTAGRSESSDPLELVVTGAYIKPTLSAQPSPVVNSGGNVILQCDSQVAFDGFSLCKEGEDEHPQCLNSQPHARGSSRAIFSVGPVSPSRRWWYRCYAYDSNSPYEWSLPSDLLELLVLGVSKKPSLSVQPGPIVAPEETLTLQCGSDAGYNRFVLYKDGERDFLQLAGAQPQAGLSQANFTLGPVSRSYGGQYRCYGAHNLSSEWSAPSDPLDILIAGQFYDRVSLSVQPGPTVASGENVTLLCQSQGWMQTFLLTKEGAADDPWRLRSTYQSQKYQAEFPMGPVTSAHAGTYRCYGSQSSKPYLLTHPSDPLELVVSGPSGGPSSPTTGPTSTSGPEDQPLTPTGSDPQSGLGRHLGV
Description: ELISA. LILRB1 recombinant proteins (50 ng/well, 100 μL per well) were coated on Corning 96-well ELISA plates at 37° C. for 4 hrs. Plates were blocked for 2 hrs at 37° C. with 5% non-fat milk. After washing with PBST, 100 μL of serial diluted anti-LILRB1 antibodies were added and incubated for 60 min at 37° C. […] Plates were washed again with PBST for another 5 times, then the immunoreactions were developed with TMB substrates (Sigma, Cat #T0440) and stopped by the addition of 2 M H_2SO_4 before the plate was read at 450 nm.

Row | Binder | EC50 [µg/mL]
1 | B1 | 0.0594
2 | B2 | 0.0154
3 | B3 | 0.0093
4 | B4 | 0.0438
5 | B5 | 0.0242
6 | B6 | 0.0106
7 | B7 | 0.0053
8 | B8 | 0.0171

Each binder was assayed against T2, human LILRB1 recombinant protein (human, UniProt Q8NHL6 24-461) (assay: ELISA, B cell supernatant).
T2 construct: The ELISA method says only 'LILRB1 recombinant proteins' coated on plates; also called leukocyte immunoglobulin-like receptor subfamily B member 1
T2 sequence (Q8NHL6 24-461 limits assumed): as above

Row | Binder | OD450 [OD450]
9 | B9 | 2.32
10 | B10 | 1.84
11 | B11 | 2.3
12 | B12 | 2.56
13 | B13 | 2.27
14 | B14 | 2.32
15 | B15 | 2.26
16 | B16 | 2.09
17 | B17 | 2.26
18 | B18 | 2.32
19 | B19 | 2.25
20 | B20 | 2.4
21 | B21 | 2.14
22 | B22 | 2.32
